The assay has as its target ribosomal protein uS12 of Thermococcus celer (T. celer (endogenous in T. celer cells), UniProt P29161 1-147). Nature of the assay: cryo-EM structure; post-splitting complex from 1 nmol T. celer 70S split by ABCE1^IIEA (8 uM), aPelota and aRF1 (5 uM each), 0.5 mM AMP-PNP, 50 mM HEPES-KOH pH 7.5, 30 mM KCl, 10 mM MgCl2, 2 mM DTT, 65 °C 15 min; cross-linked with 1% formaldehyde; 30S fractions of a 10-30% sucrose gradient. Conditions: both partners purified.

B1: ABCE1^IIEA (E238A/E485A), hydrolysis-deficient ABCE1 from Saccharolobus solfataricus (enzyme)
chain: MRVAVINYDFCKPDKCNLECINFCPVDRSGGKAIELSEIVKGKPVIYEETCIGCGICVKKCPYEAISIVNLPDELEGEVIHRYKVNGFKLFGLPTPKNNTILGVLGKNGVGKTTVLKILAGEIIPNFGDPNSKVGKDEVLKRFRGKEIYNYFKELYSNELKIVHKIQYVEYASKFLKGTVNEILTKIDERGKKDEVKELLNMTNLWNKDANILSGGGLQRLLVAASLLREADVYIFDAPSSYLDVRERMNMAKAIRELLKNKYVIVVDHDLIVLDYLTDLIHIIYGESSVYGRVSKSYAARVGINNFLKGYLPAENMKIRPDEIKFMLKEVSDLDLSKDLKTKMKWTKIIKKLGDFQLVVDNGEAKEGEIIGILGPNGIGKTTFARILVGEITADEGSVTPEKQILSYKPQRIFPNYDGTVQQYLENASKDALSTSSWFFEEVTKRLNLHRLLESNVNDLSGGELQKLYIAATLAKEADLYVLDAPSSYLDVEERYIVAKAIKRVTRERKAVTFIIDHDLSIHDYIADRIIVFKGEPEKAGLATSPVTLKTGMNEFLRELEVTFRRDAETGRPRVNKIGSYLDRVQKERGDYYS
notes: ABCE1, ABC-type twin-ATPase, Saccharolobus solfataricus; both catalytic glutamates changed to alanine; Carries iron-sulfur clusters (FeSD); also called ABCE1 E238A/E485A; source: E. coli, recombinant (pSA4 plasmid), purified
In the case of B1, the binding result is on record as “binds”.
